Source: PMC4673700
Read-outs that look alike come from different tables or passages of the source.

Assays:
[1] = target: Aflibercept (human); test: BLI; BLItz; aflibercept, PNGase F-treated aflibercept, VEGFR1-Fc or VEGFR2-Fc immobilised on Protein A-coated biosensors; GST-galectin-1 as analyte at various concentrations; PBS; values of empty sensors subtracted
[2] = target: PNGase F-treated aflibercept (human); test: as above
[3] = target: PNGase F-treated aflibercept (human); test: as above; remark: listed apart in the source
[4] = target: GST-fused galectin-1 protein (human) (UniProt P09382)
Sequence of GST-fused galectin-1 protein (human) (P09382 whole entry, the tested form may be a part): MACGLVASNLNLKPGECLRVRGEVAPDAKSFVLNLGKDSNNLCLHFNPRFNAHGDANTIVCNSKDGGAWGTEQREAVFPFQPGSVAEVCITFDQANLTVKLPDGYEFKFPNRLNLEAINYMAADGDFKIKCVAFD

Sequence of GST-fused galectin-1 protein (P09382 whole entry, the tested form may be a part): as above
Sequence of Aflibercept (Fc fusion) (chain): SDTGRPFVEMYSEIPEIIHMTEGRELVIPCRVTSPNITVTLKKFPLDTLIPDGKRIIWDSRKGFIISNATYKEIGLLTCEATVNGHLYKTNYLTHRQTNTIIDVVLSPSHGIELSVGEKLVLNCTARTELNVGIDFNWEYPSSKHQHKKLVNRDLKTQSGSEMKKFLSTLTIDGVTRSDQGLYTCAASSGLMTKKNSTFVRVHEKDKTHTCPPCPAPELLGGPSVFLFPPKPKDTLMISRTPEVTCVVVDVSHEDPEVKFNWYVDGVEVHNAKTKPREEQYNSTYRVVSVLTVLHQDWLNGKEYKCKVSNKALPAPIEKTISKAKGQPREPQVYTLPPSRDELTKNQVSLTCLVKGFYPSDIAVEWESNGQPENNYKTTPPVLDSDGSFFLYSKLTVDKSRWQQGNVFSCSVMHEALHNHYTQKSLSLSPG

Question: What does the source list for “GST-fused galectin-1 protein (from UniProt P09382 1-135) (natural protein)”?
Answer: Kd [1]: 23.7 nM; koff [1]: 0.000371 s⁻¹; kon [1]: 15700 M⁻¹ s⁻¹; Kd [2]: 868 nM; koff [2]: 0.00531 s⁻¹; kon [2]: 6120 M⁻¹ s⁻¹; Kd [3]: 869 nM

Question: For Aflibercept (Fc fusion), which HRMEC proliferation (RealTime-Glo, relative to PBS) with 10 μg/ml galectin-1 for 48 h with 7.5 μg/ml aflibercept (2.77 without aflibercept) [4] is on record?
Answer: 0.96 fold change
